Source: patent publication US20260001914A1, “MACROCYCLIC PEPTIDES TARGETING KRAS” (Merck Sharp & Dohme LLC, priority 2022, published 2026)

Assays:
[1] = target: KRAS-G12D in AsPC-1 cells (UniProt P01116); assay: cell-based or functional assay
[2] = target: Biotin-labeled KRAS-G12D protein (UniProt P01116-2 1-169, limits assumed, biotin label (site not stated); loaded with BODIPY-GDP); assay: cell-based or functional assay

| Substance | AlphaScreen @18 h, EC50 [1] [µM] | SOS assay EC50 [2] [µM] |
| --- | --- | --- |
| cyclo(FLac-NMeA-PyrimAla-Nle-Phe2F-Nlecalken3Pal-amBCP) (peptide) | 11.2 | 0.59 |
| cyclo(FLac-NMeA-4F3Pal-Nle-2Pal6F-Nle-NMeF-amBCP) (peptide) | > 50.9 | 0.87 |
| cyclo(4F3Pal-NMeA-3Pal-Nle-Phe2F-Nle-NMe3Pal-amBCP) (peptide) | > 50.9 | 1.78 |
| cyclo(FLac-NMeA-3Pal-NvaF-Phe2F-Nle-NMe3Pal-amBCP) (peptide) | > 50.9 | 0.0351 |
| cyclo(FLac-NMeA-3Pal-Nle-Phe2F-hL-NMe3Pal-amBCP) (peptide) | 4.65 | 0.00217 |
| cyclo(4Me3Pal-NMeA-3Pal-Nle-Phe2F-Nle-NMe3Pal-amBCP) (peptide) | > 50.9 | 2.89 |
| cyclo(FLac-NMeNvalmid-4F3Pal-Nle-Phe2F-Nle-NMeF-amBCP) isomer 1 (peptide) | > 50.9 | 0.101 |
| cyclo(FLac-NMeA-PyrimAla-Nle-Phe2F-Nle-NMe3Pal-amBCP) (peptide) | 13.4 | 0.0336 |
| cyclo(FLac-R-3Pal-cBuA-TyrOMe-Ahp-NMeF-amBCP) (peptide) | > 50.9 | 0.0108 |
| cyclo(FLac-NMeNvalmid-PyrimAla-Nle-F2FLac-Nle-NMe3Pal-amBCP) (peptide) | > 50.9 | 1.16 |
| cyclo(FLac-NMeA-PyrimAla-cBuA-Phe2F-Nle3F2-NMeF-amBCP) (peptide) | 0.542 | 0.00239 |
| cyclo(F-NMeA-3Pal-cBuA-TyrOMe-Ahp-NMeF-aMeC1-C1Ac) (peptide) | > 50.9 | 0.146 |
| cyclo(FLac-NMeA-PyrimAla-NvaF-Phe2F-hL-NMeF-amBCP) (peptide) | 2.26 | 0.00779 |
| cyclo(FLac-NMeA-PyrimAla-hL-Phe2F-Nle-NMe3Pal-amBCP) (peptide) | > 50.9 | 0.228 |
| cyclo(FLac-NMeA-PyrimAla-cPrA-Phe2F-Hag-NMeHag-amBCP) (peptide) | 41.2 | 0.225 |
| cyclo(FLac-NMeNvaF-3Pal-Nle-Phe2F-Nle-NMe3Pal-amBCP) (peptide) | 20.7 | 0.297 |
| cyclo(FLac-NMeNle-3Pal-DabN3-Phe2F-Nle-NMe3Pal-amBCP) (peptide) | 21.7 | 3.06 |
| cyclo(F-R-3Pal-cBuA-NvaOMe-Nle-NMeF-aMeC1-C1Ac (peptide) | > 50.9 | 4.41 |
| cyclo(F-DabN3~3Pal-cBuA-V-Nle-NMe3Pal-amBCP) (peptide) | > 50.9 | 6.56 |

| Substance | AlphaScreen @18 h, EC50 [1] [µM] | SOS assay EC50 [2] [µM] |
| --- | --- | --- |
| cyclo(FLac-NMeA-4F3Pal-Nle-Phe2F-Nle-NMe3Pal-amBCP) (peptide) | 11.8 | 0.0187 |
| cyclo(F-NMeDabN3-3Pal-NleLac-Phe2F-Nle-NMe3Pal-amBCP) (peptide) | > 50.9 | 3.88 |
| cyclo(FLac-NMeS-3Pal-Nle-Phe2F-Nle-NMe3Pal-amBCP) (peptide) | > 50.9 | 0.466 |
| cyclo(CPhe-NMeA-PyrimAla-cPrA-Phe2F-Nle3F2-NMeF-MeOximamBCP) isomer 1 (peptide) | 3.4 | 0.051 |
| cyclo(FLac-NMeA-PyrimAla-Nle-Phe2F-Nle-NMe3Pal-SMeamBCP) (peptide) | 23.4 | 0.0335 |
| cyclo(TyrOMe-NMeA~3Pal-Nle-Phe2F-Nle-NMe3Pal-amBCP) (peptide) | > 50.9 | 0.757 |
| cyclo(FLac-NMeA~PyrimAla-rF2Cba-Phe2F-Nle-NMe3Pal-amBCP) isomer 2 (peptide) | > 50.9 | 8.19 |
| cyclo(FLac-NMeA-PyrimAla-Nle-Phe2F-Nle-NMePhe4F-amBCP) (peptide) | 0.994 | 0.0125 |
| cyclo(FLac-NMeA-4F3Pal-Nle-Phe2F-Nva-NMeF-amBCP) (peptide) | > 50.9 | 0.997 |
| cyclo(Phe4Me-NMeA-3Pal-Nle-Phe2F-Nle-NMe3Pal-amBCP) (peptide) | 37.2 | 0.0911 |
| cyclo(FLac-NMeA-PyrimAla-L-Phe2F-Nle-NMe3Pal-amBCP) (peptide) | > 50.9 | 0.00438 |
| cyclo(FLac-NMeA-3Pal-Nle-Phe2F-Nva-NMe3Pal-amBCP) (peptide) | > 50.9 | 0.154 |
| cyclo(Phe4F-NMeA-3Pal-Nle-Phe2F-Nle-NMe3Pal-amBCP) (peptide) | 42.8 | 0.0999 |
| cyclo(FLac-NMeA-PyrimAla-Leu3F-Phe2F-hL-NMeF-amBCP) (peptide) | 7.73 | 0.114 |
| cyclo(FLac-NMeA-PyrimAla-NleF-Phe2F-NleF-NMeF-amBCP) (peptide) | 3.72 | 0.0374 |
| cyclo(FLac-NMeDabN3-3Pal-Nle-F2FLac-Nle-NMe3Pal-amBCP) (peptide) | 3.48 | 5.59 |
| cyclo(FLac-NMeNvalmid-4CF33Pal-Nle-Phe2F-Nle-NMeF-amBCP) isomer 1 (peptide) | > 50.9 | 0.188 |
| cyclo(FLac-NMeA-PyrimAla-Nle-Phe2F-Nle-NMePhe3F-amBCP) (peptide) | 0.734 | 0.0122 |
| cyclo(Y-NMeA-3Pal-Nle-Phe2F-Nle-NMe3Pal-amBCP) (peptide) | 46.4 | 0.44 |

| Substance | AlphaScreen @18 h, EC50 [1] [µM] | SOS assay EC50 [2] [µM] |
| --- | --- | --- |
| cyclo(F-R-3Pal-Nle-Phe2F-Nle-NMeF-aMeC1-C1Ac) (peptide) | > 50.9 | 0.0128 |
| cyclo(FLac-R-3Pal-Nle-Phe2F-Nle-NMeF-amBCP) (peptide) | 39.4 | 0.0207 |
| cyclo(FLac-NMeA-PyrimAla-cBuA-Phe2F-hcPrA-NMeF-amBCP) (peptide) | 0.437 | 0.004 |
| cyclo(FLac-NMeA-PyrimAla-cPeA-Phe2F-Nle-NMe3Pal-amBCP) (peptide) | 17.4 | 0.0223 |
| cyclo(F-NMeA~3Pal-Nle-Phe2F-Nle-NMe3Pal-amBCP) (peptide) | > 50.9 | 0.313 |
| cyclo(INal-R-Phe4CH2NH2-Nle-Y-Nle-NMeF-daMeC-C1Ac) (peptide) | > 50.9 | 1.46 |
| cyclo(FLac-NMeDabN3-3Pal-Nle-Phe2F-Nle-NMe3Pal-amBCP) (peptide) | 3.95 | 0.0876 |
| cyclo(FLac-NMeA-PyrimAla-NleF-Phe2F-Nle-NMeF-amBCP) (peptide) | 2.03 | 0.00243 |
| cyclo(FLac-NMeA-3Pal-cBuA-TyrOMe-Ahp-NMeF-amBCP) (peptide) | 0.886 | 0.0379 |
| cyclo(FLac-NMeA-PyrimAla-cPeA-Phe2F-hL-NMeF-amBCP) (peptide) | 0.285 | 0.00413 |
| cyclo(FLac-NMeA-PyrimAla-Nle-Phe2F-Nle-NMeYOMe-amBCP) (peptide) | 0.439 | 0.011 |
| cyclo(FLac-nMeSMe-3Pal-Nle-Phe2F-Nle-NMe3Pal-amBCP) (peptide) | > 50.9 | 6.41 |
| cyclo(FLac-NMeA-PyrimAla-Nle-Phe2F-hL-NMeF-amBCP) (peptide) | 1.11 | 0.00787 |
| cyclo(FLac-NMeNvalmid-3Pal-Nle-Phe2F-Nle-NMeF-amBCP) (peptide) | 5.16 | 0.0289 |
| cyclo(FLac-NMeA-PyrimAla-Nle-Phe2F-Nle-NMePhe4Me-amBCP) (peptide) | 0.223 | 0.0191 |
| cyclo(FLac-NMeDabN3-4CF33Pal-Nle-Phe2F-Nle-NMe3Pal-amBCP) (peptide) | 6.12 | 0.435 |
| cyclo(FLac-NMeA-PyrimAla-cPrA-Phe2F-hcPrA-NMeF-amBCP) (peptide) | 0.615 | 0.002 |
| cyclo(3Pal-NMeA-3Pal-Nle-Phe2F-Nle-NMe3Pal-amBCP) (peptide) | > 50.9 | 3.06 |
